In article PMC6663880:

Columns and labels:
[1] = target: Lys63-linked polyubiquitin (UniProt P0CG48); test: co-immunoprecipitation (anti-FLAG beads), immunoblot quantification; details: HEK293 cells; n = 3; parent: est. 1.0; read off a plot
[2] = target: p97/VCP (valosin-containing protein) (UniProt P55072); test: as above; details: HEK293 cells; n = 3; parent: est. 1.0; read off a plot
Chain of UniProt P55072 (P55072 whole entry): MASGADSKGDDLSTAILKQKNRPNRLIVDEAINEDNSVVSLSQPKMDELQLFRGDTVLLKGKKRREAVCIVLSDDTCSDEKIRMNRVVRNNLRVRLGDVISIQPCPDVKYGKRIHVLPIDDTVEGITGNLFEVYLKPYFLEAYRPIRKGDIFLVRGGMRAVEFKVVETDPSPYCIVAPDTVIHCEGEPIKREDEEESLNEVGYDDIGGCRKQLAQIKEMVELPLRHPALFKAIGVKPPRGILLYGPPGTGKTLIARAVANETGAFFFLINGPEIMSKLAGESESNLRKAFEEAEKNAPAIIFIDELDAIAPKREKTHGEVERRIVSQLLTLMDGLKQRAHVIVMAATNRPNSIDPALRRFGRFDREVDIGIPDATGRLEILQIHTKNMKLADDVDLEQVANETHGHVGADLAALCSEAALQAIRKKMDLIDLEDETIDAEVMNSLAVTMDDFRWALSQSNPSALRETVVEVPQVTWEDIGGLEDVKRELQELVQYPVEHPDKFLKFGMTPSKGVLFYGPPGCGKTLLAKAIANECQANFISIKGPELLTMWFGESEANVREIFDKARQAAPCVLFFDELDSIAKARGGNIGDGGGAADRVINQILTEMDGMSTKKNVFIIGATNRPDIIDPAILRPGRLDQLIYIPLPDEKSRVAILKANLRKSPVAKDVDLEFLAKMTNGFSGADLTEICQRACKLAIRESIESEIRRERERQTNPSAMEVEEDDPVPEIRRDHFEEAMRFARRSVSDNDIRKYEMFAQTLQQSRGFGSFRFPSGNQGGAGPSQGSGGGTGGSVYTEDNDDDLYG

ratio to parent [1]: 0.36
ratio to parent [2]: 0.22
Substance: RHBDL4mycFLAG (from UniProt Q8TEB9) AllY>F
